Here are results for one protein from article PMC12607626, “Separation of Pseudomonas aeruginosa type IV pilus-dependent twitching motility and surface-sensing responses” (mBio, 2025).

The data set deals with the molecule itself. Put plainly: crystal structure; X-ray, 4.5 Å; sitting-drop vapour diffusion at 20 °C; 12.5 µM ATP in the final buffer, no nucleotide density; four protomers in the asymmetric unit, two nearly identical C3 hexamers identified from the crystal packing.

B1: PilU (Pseudomonas aeruginosa type IVa pilus retraction ATPase paralog of PilT) (enzyme)
chain: MEFEKLLRLMVEKGGSDLFITAGVPPSMKVNGRVMPVTKTPLSPEQTRETVLGVMNEQQRRDFAENHECNFAISARGIGRFRVSAFYQRNLVGMVLRRIETNIPTLEELKLPEILKKLALTKRGLVIFVGATGTGKSTSLAAMIGYRNKNSTGHIISIEDPIEYIHQHQGCIVTQREVGLDTDSFEVALKNTLRQAPDVIMIGEVRSRETMDHAVAFAETGHLCLATLHANNANQALERIIHFFPADRHGQVWMDLSLNLKAIVAQQLVPTPDGKGRRAVIEVLLNTPLAADLIRKGEVHELKPLMKRSTEQGMQTFDQALYQLYTQGEITYEDALAHADSANDLRLMIKLGSESDADHLSSLTQGLSLEITDDDPAGRRFR
notes: PilU, P. aeruginosa; the pilU gene was amplified by PCR and cloned into pET28a; the 30 C-terminal residues were not resolved in the crystal; also called PilU hexamer; source: E. coli BL21 (DE3), pET28a, purified (HiTrap Chelating HP, size-exclusion chromatography)
Take B1: the stoichiometry N – broadly, a count of units in the complex or per binding partner – turned out to be 6.
